Results reported in patent US20240360223A1 (DRAGONFLY THERAPEUTICS, published 2024).
Read-outs that look alike come from different tables or passages of the source. Blank lines part the entries; values can stand above or below the binder they belong to.

Experiments:
[1] = molecular target: T1, human BAFF-R expressed on cells (human, UniProt Q96RJ3 1-184); assay: flow cytometry on hBAFFR-CHO cells, anti-mouse (H+L)-PE
T1 construct: Cell surface BAFF-R, endogenous on B cell lines and primary B cells or overexpressed on isogenic CHO cells; also called hBAFF-R; hBAFF-R-CHO

[2] = molecular target: T1, human BAFF-R expressed on cells; assay: flow cytometry, RAJI cells
Procedure: The BAFF-R positive human B lymphoblastoid RAJI cell line was used to assess TriNKET binding to cell surface BAFF-R. Certain BAFF-R TriNKETs in the 2-Fab and F3′ formats, as described in the “exemplary multispecific binding proteins” subsection above, were diluted and incubated with Raji cells. Binding patterns of TriNKETs and parental monoclonal antibodies were detected using a fluorophore conjugated anti-human IgG secondary antibody. The cells were then incubated with a fluorophore conjugated anti-human IgG secondary antibody and were analyzed by flow cytometry. The mean fluorescence intensity (MFI) values were normalized to secondary antibody only controls to obtain fold over background (FOB) values.

[3] = molecular target: T1, human BAFF-R expressed on cells; assay: flow cytometry on hBAFFR-CHO cells
[4] = molecular target: T2, cynomolgus monkey BAFF-R expressed on cells (cynomolgus monkey); assay: flow cytometry on cBAFFR-CHO cells
T2 construct: whole, on cells; also called cBAFF-R; cynoBAFF-R

[5] = molecular target: T1, human BAFF-R expressed on cells; assay: blocking of BAFF-biotin on BAFF-R CHO cells
[6] = molecular target: T1, human BAFF-R expressed on cells; assay: blocking of BAFF-biotin on hBAFF-R CHO cells, flow cytometry
Procedure: Briefly, CHO cells expressing human BAFF-R were harvested, washed in cold FACS buffer, and seeded at a density of 100,000 cells per well. Test articles were diluted in FACS buffer, and 50 μL of diluted multispecific binding protein or mAb was added to cells, incubated on ice for 60 minutes, then washed with FACS buffer. […] Cells were incubated with 100 μL of 1:200 streptavidin-PE diluted in FACS buffer and incubated on ice for 30 minutes then washed with FACS buffer. Cells were then incubated in 100 μL of 1:1,000 dilution of live/dead dye in PBS for 15 minutes, then washed with FACS buffer, and fixed. After incubation, cells were washed with FACS buffer and resuspended in FACS buffer for analysis with flow cytometry. Median fluorescent intensity (MFI) of each sample and the secondary-only control was calculated. […] Data were fit to a four-parameter non-linear regression curve using GraphPad Prism.

[7] = molecular target: T1, human BAFF-R expressed on cells; assay: flow cytometry blocking assay on hBAFFR-CHO cells; blocked ligand: 20 nM BAFF-biotin
[8] = molecular target: T1, human BAFF-R expressed on cells; assay: as above; remark: listed apart in the source
[9] = molecular target: T1, human BAFF-R expressed on cells; assay: as above; remark: listed apart in the source
[10] = molecular target: T1, human BAFF-R expressed on cells; assay: cell-based or functional assay
[11] = molecular target: T1, human BAFF-R expressed on cells; assay: flow cytometry, BAFF-R-CHO cells
[12] = molecular target: T1, human BAFF-R expressed on cells; assay: told of the group of Table 17, reference AB0369; format not given
[13] = molecular target: T1, human BAFF-R expressed on cells; assay: flow cytometry, hBAFF-R+ cells
[14] = molecular target: T2, cynomolgus monkey BAFF-R expressed on …; assay: flow cytometry, cBAFF-R+ cells
[15] = molecular target: T1, human BAFF-R expressed on cells; assay: flow cytometry, hBAFF-R+ cells; remark: listed apart in the source
[16] = molecular target: T2, cynomolgus monkey BAFF-R expressed on …; assay: flow cytometry, cyno BAFF-R CHO cells
[17] = molecular target: T1, human BAFF-R expressed on cells; assay: flow cytometry, human BAFF-R CHO cells
[18] = molecular target: T1, human BAFF-R expressed on cells; assay: blocking of BAFF-biotin on hBAFF-R CHO cells
[19] = molecular target: T2, cynomolgus monkey BAFF-R expressed on …; assay: flow cytometry, cyno BAFF-R CHO cells; remark: listed apart in the source
[20] = molecular target: T1, human BAFF-R expressed on cells; assay: flow cytometry, human BAFF-R CHO cells; remark: listed apart in the source
[21] = molecular target: T1, human BAFF-R expressed on cells; assay: flow cytometry on hBAFFR-CHO cells, anti-mouse IgG(H+L)-PE

B1: 10H7-C5 (antibody, V domains shown)
VH: EVQLVESGGGLVKPGGSLKLSCAASGFSFSRYAMSWVRQTPEKRLEWVATISDGGSYTHYRDNVKGRFTISRDNAKNNLNLQMSHLKSEDTAIYYCARNEMGLYFDYDVYAMDYWGQGTSVTVSS
VL: DIVMTQTPLSLPVSLGDQASISCRSSQSLLHSNGNTYLYWYLQKPGQSPKLLIHRVSNRFSGVPDRFGGSGSGTDFTLKIIRVEAEDLGVYFCFQGTHVPWTFGGGTKLEIK
notes: Mouse hybridoma mAb from DNA immunization; also called clone 10H7-C5
- EC50 (read off the curve) [1]: 1 to 10 nM

B2: 1B3-A7 (antibody, V domains shown)
VH: EVQLVESGGGLVKPGGSLKLSCVVSGFTFSNYAMSWVRQTPEKRLEWVATISDGGGYTYYPDSVKGRFTISRDNAKNNLYLQMSHLKSEDTAIYYCARDDLGGGNYVSSYFDVWGTGTTVTVSS
VL: DVVMTQTPLSLPVSPGDQASISCRSSQSLVHSNGNTYLYWYLQKPGQSPKLLIYRVSNRFSGVPDRFSGSGSGTDFTLKINRVEAEDLGVYFCFQGTHVPLTFGSGTKLELK
notes: Mouse hybridoma mAb from DNA immunization; also called clone 1B3-A7
- EC50 (read off the curve) [1]: ~2 nM

B4: AB0605 (bispecific antibody, V domains shown)
VH: EVQLVQSGGGVVQPGRSLRLSCAASGFTFSSYGMHWVRQAPGKCLEWVAVIWYDGSNKYYGDSVKGRFTISRDNSKNTLYLQMNSLRDEDTAVYYCARRFTMLRGQYIEDYGMDVWGQGTTVTVSS
VL: not shown
notes: also called AB0605-001
- KHYG-A-CD16Av mediated Cytolysis of Ramos cells EC50 [10]: 0.15 nM
- EC50 [11]: 5.72 nM
- fold improvement in BAFF-R binding against AB0369 [12]: > 3 fold

B6: AB0622 (bispecific antibody, V domains shown)
VH: EVQLVQSGGGVVQPGRSLRLSCAASGFTFSSYGMHWVRQAPGKCLEWVAVIWYDGSNKYYGDSVKGRFTISRDNSKNTLYLQMNSLRDEDTAVYYCARRFTMLRGWIIEDYGMDVWGQGTTVTVSS
VL: not shown
notes: also called AB0622-001
- KHYG-A-CD16Av mediated Cytolysis of Ramos cells EC50 [10]: 0.09 nM
- EC50 [11]: 3.45 nM
- fold improvement in BAFF-R binding against AB0369 [12]: > 3 fold

B12: AB0606 (bispecific antibody, V domains shown)
VH: EVQLVQSGGGVVQPGRSLRLSCAASGFTFSSYGMHWVRQAPGKCLEWVAVIWYDGSNKYYGDSVKGRFTISRDNSKNTLYLQMNSLRDEDTAVYYCARRFTMLRGWYIEDYGMDVWGQGTTVTVSS
VL: not shown
notes: also called AB0606-001
- KHYG-A-CD16Av mediated Cytolysis of Ramos cells EC50 [10]: 0.06 nM
- EC50 [11]: 4.5 nM
- fold improvement in BAFF-R binding against AB0369 [12]: > 3 fold

B15: 3A1 (antibody, V domains shown)
VH: QVQLQQPGAELVKPGASVKLSCKASGYTFTSYWMHWVKQRPGQGLEWIGEIDPFDSYTNYNQNFKGKATLTVDKSSSTAYMLLSSLTSDDSAVYYCARERLRLWSYYFDYWGQGTTLTVSS
VL: DVVMTQTPLSLPVSLGDQASISCRSSQSIVHSNGNTYLEWYLQKPGQSPKLLIYKVSNRLSGVPDRFSGSGSGTDFTLKISRVEAEDLGVYYCFQGSHDPFTFGSGTKLEIK
notes: Mouse hybridoma mAb from DNA immunization; also called clone 3A1
- EC50 (read off the curve) [21]: ~0.3 nM

B16: 7G4 (antibody, V domains shown)
VH: QVQLQQPGAELVKPGASVKLSCKASGYTFTSYWMHWVKQRPGQGLEWIGEVDPSDSYTNYNQKFKGKATLTVDKSSSTAYILLSNLTSDDSAVYYCARERVRLWSYFFDYWGQGTTLTVSS
VL: DVVMTQTPLSLPVSLGDQASISCRSSQSIVHSNGNTYLEWYLQKPGQSPKLLIYKVSNRLSGVPDRFSGSGSGTDFTLKISRVEAEDLGVYYCFQGSHDPFTFGSGTKLEIK
notes: Mouse hybridoma mAb from DNA immunization; also called clone 7G4
- EC50 (read off the curve) [21]: ~0.3 nM

The remaining lines, values ahead:

- EC50 [2]: 0.003 nM
- EC50 (read off the curve) [3]: ~0.5 nM
- EC50 (read off the curve) [4]: ~0.4 nM
- IC50 [5]: 0.38 nM
- IC50 [6]: 0.5 nM
- IC50 (read off the curve) [7]: ~0.4 nM
- IC50 (read off the curve) [8]: ~0.4 nM
- IC50 (read off the curve) [9]: ~0.8 nM
B3: Ianalumab-mAb (antibody, V domains shown)
VH: QVQLQQSGPGLVKPSQTLSLTCAISGDSVSSNSAAWGWIRQSPGRGLEWLGRIYYRSKWYNSYAVSVKSRITINPDTSKNQFSLQLNSVTPEDTAVYYCARYQWVPKIGVFDSWGQGTLVTVSS
VL: DIVLTQSPATLSLSPGERATLSCRASQFILPEYLSWYQQKPGQAPRLLIYGSSSRATGVPARFSGSGSGTDFTLTISSLEPEDFAVYYCQQFYSSPLTFGQGTKVEIK
notes: Parental control mAb; also called Ianalumab-based tool-mAb; Tool-mAb

- EC50 [13]: 4.3 nM
B5: AB0899 (bispecific antibody, V domains shown)
VH: EVQLVQSGGGVVQPGRSLRLSCAASGFTFSSSGMHWVRQAPGKCLEWVAVIWYDASNKYYGDSVKGRFTISRDNSKNTLYLQMNSLRDEDTAVYYCARRFTYLRGWYIEDYGLDVWGQGTTVTVSS
VL: not shown

- EC50 [14]: 4.34 nM
- EC50 [15]: 5.78 nM
- EC50 [16]: 3.29 nM
- EC50 [17]: 4.48 nM
- IC50 [18]: 12.7 nM
B7: AB1085 (bispecific antibody, V domains shown)
VH: EVQLVQSGGGVVQPGRSLRLSCAASGFTFGSYGMHWVRQAPGKCLEWVAVIWYDGSNKYYGDSVKGRFTISRDNSKNTLYLQMNSLRDEDTAVYYCARRFTHLRGQYIEDYGMDVWGQGTTVTVSS
VL: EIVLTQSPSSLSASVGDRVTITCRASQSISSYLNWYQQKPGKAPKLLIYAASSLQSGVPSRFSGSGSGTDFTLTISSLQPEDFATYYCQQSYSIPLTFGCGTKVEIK
notes: also called AB1085-001

- EC50 [14]: > 14 nM
- EC50 [15]: > 8 nM
B8: AB1081 (bispecific antibody, V domains shown)
VH: EVQLVQSGGGVVQPGRSLRLSCAASGFAFSSYGMHWVRQAPGKCLEWVAVIWYDESNKYYGDSVKGRFTISRDNSRNTLYLQMNSLRDEDTAVYYCARRFTNLRGWIIEDYGLDVWGQGTTVTVSS
VL: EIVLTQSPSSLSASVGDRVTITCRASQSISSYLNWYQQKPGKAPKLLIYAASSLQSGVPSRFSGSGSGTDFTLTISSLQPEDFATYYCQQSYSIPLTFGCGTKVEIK
notes: also called AB1081-002

- EC50 [19]: 2.6 nM
- EC50 [20]: 2.3 nM
- IC50 [5]: 9.4 nM
B9: AB0679 (bispecific antibody, V domains shown)
VH: EVQLVQSGGGVVQPGRSLRLSCAASGFPFSSYGMHWVRQAPGKCLEWVAVIWYDGSNKYYGDSVKGRFTISRDNSKNTLYLQMNSLRDEDTAVYYCARRFTMLRGWYIEDYGMDVWGQGTTVTVSS
VL: not shown
notes: also called AB0679-001

- EC50 [13]: 4.3 nM
B10: AB0898 (bispecific antibody, V domains shown)
VH: EVQLVQSGGGVVQPGRSLRLSCAASGFTFSSSGMHWVRQAPGKCLEWVAVIWYDASNKYYGDSVKGRFTISRDNSKNTLYLQMNSLRDEDTAVYYCARRFTRLRGWYIEDYGLDVWGQGTTVTVSS
VL: not shown

- EC50 [13]: 11.7 nM
B11: AB0900 (bispecific antibody, V domains shown)
VH: EVQLVQSGGGVVQPGRSLRLSCAASGFTFSSSGMHWVRQAPGKCLEWVAVIWYDASNKYYGDSVKGRFTISRDNSKNTLYLQMNSLRDEDTAVYYCARRFTSLRGWYIEDYGLDVWGQGTTVTVSS
VL: not shown

- EC50 [19]: 3.1 nM
- EC50 [20]: 2.4 nM
- IC50 [5]: 12.6 nM
B13: AB0682 (bispecific antibody, V domains shown)
VH: EVQLVQSGGGVVQPGRSLRLSCAASGFTFSSSGMHWVRQAPGKCLEWVAVIWYDGSNKYYGDSVKGRFTISRDNSKNTLYLQMNSLRDEDTAVYYCARRFTMLRGWYIEDYGMDVWGQGTTVTVSS
VL: not shown
notes: also called AB0682-001

- EC50 [14]: 1.36 nM
- EC50 [15]: 1.97 nM
- EC50 [16]: 2.36 nM
- EC50 [17]: 2.71 nM
- IC50 [18]: 5.72 nM
B14: AB1080 (bispecific antibody, V domains shown)
VH: EVQLVQSGGGVVQPGRSLRLSCAASGFTFSSYGMHWVRQAPGKCLEWVAVIWYDASNKYYGDSVKGRFTISRDNSKNTLYLQMNSLRDEDTAVYYCARRFTHLRGWYIEDYGLDVWGQGTTVTVSS
VL: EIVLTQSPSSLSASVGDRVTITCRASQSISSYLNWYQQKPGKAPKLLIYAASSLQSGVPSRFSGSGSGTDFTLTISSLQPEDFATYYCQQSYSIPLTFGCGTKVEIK
notes: also called AB1080-002; AB1080-003
